Consider three molecules from paper PMC4440785, “Cytoplasmic Domain of MscS Interacts with Cell Division Protein FtsZ: A Possible Non-Channel Function of the Mechanosensitive Channel in Escherichia Coli” (PLoS ONE, 2015).

Series [1] concerns the target E. coli FtsZ, purified (GTP-polymerized in the assays) (E. coli) (UniProt P0A9A6). Nature of the series: co-sedimentation; co-sedimentation with GTP-polymerized FtsZ carried out similarly to Fig 2 panel A; data fitted with Hill model y = x^n/(Kd+x^n).
Series [2] deals with the molecule itself. Put plainly: 90° angle light scattering; FtsZ (12 μM) alone or with MBP-ABDOM (12 μM) or MBP in 50 mM PIPES pH 6.0, 1 mM EDTA, 5 mM MgCl2, 30 °C; polymerization induced by 1 mM GTP.

Broadly, the Kd is the equilibrium constant for the complex coming apart. “MBP-ABDOM-K258A/R259A (from UniProt P0C0S1 175-265) (domain or fragment)” showed a Kd in series [1] of 14.6 µM.

For “MBP-ABDOM (ABDOM of MscS with N-terminally fused maltose binding protein) (from UniProt P0C0S1 175-265) (domain or fragment)”, in series [1], the dissociation constant (Kd) was 5.3 µM.

B1: E. coli FtsZ, purified (GTP-polymerized in the assays) (natural protein, UniProt P0A9A6 1-383, looked up)
chain: MFEPMELTNDAVIKVIGVGGGGGNAVEHMVRERIEGVEFFAVNTDAQALRKTAVGQTIQIGSGITKGLGAGANPEVGRNAADEDRDALRAALEGADMVFIAAGMGGGTGTGAAPVVAEVAKDLGILTVAVVTKPFNFEGKKRMAFAEQGITELSKHVDSLITIPNDKLLKVLGRGISLLDAFGAANDVLKGAVQGIAELITRPGLMNVDFADVRTVMSEMGYAMMGSGVASGEDRAEEAAEMAISSPLLEDIDLSGARGVLVNITAGFDLRLDEFETVGNTIRAFASDNATVVIGTSLDPDMNDELRVTVVATGIGMDKRPEITLVTNKQVQQPVMDRYQQHGMAPLTQEQKPVAKVVNDNAPQTAKEPDYLDIPAFLRKQAD
notes: cell division protein FtsZ, E. coli, from pET11-ftsZ (gift of H. P. Erickson); also called polymerized FtsZ; assembled FtsZ; source: E. coli BL21(DE3) carrying pET11-FtsZ, purified by GTP-induced precipitation (four times)
As for B1, in series [2], the binding result is recorded as “binds”.
